Key:
[1] = target: four maltose binding proteins arranged in tandem (4MBP)
[2] = target: four maltose binding proteins arranged in tandem (4MBP); remark: listed apart in the source
[3] = target: four maltose binding proteins arranged in tandem (4MBP); remark: listed apart in the source

| Binder | percentage of residues of 4MBP forming weak aggregates after unfolding and 5 s relaxation at 0 pN, with 5 μM HSPB8 (40% in the absence of chaperone) [1] | percentage of residues of 4MBP in tight aggregates (not unfolded at 63 pN) after unfolding and relaxation, with 5 μM HSPB8 [1] | no. of weak aggregates of 4MBP per trace with 5 μM HSPB8 (No HSPB8: 1.16) (aggregates per trace) [2] | no. of weak aggregates of 4MBP per trace with 5 μM HSPB8-K141E (No HSPB8: 1.16) (aggregates per trace) [2] | percentage of residues of 4MBP forming weak aggregates after unfolding and relaxation, with 5 μM HSPB8-K141E (19% for wild-type HSPB8; 40% in the absence of chaperone) [3] |
| --- | --- | --- | --- | --- | --- |
| human small heat shock protein HSPB8 (wild type) (natural protein) MADGQMPFSCHYPSRLRRDPFRDSPLSSRLLDDGFGMDPFPDDLTASWPDWALPRLSSAWPGTLRSGMVPRGPTATARFGVPAEGRTPPPFPGEPWKVCVNVHSFKPEELMVKTKDGYVEVSGKHEEKQQEGGIVSKNFTKKIQLPAEVDPVTVFASLSPEGLLIIEAPQVPPYSTFGESSFNNELPQDSQEVTCT | 19% | < 2% | 0.64 |  |  |
| HSPB8-K141E, pathogenic mutant of human HSPB8 (natural protein) MADGQMPFSCHYPSRLRRDPFRDSPLSSRLLDDGFGMDPFPDDLTASWPDWALPRLSSAWPGTLRSGMVPRGPTATARFGVPAEGRTPPPFPGEPWKVCVNVHSFKPEELMVKTKDGYVEVSGKHEEKQQEGGIVSKNFTEKIQLPAEVDPVTVFASLSPEGLLIIEAPQVPPYSTFGESSFNNELPQDSQEVTCT |  |  |  | 0.85 | 31% |
